# Experimental data published in patent US20170253670A1 (Hoffmann-La Roche, published 2017).
# “And” between values parts separate entries of the source, which are not always exact repeats. Equal entries are not always repeated.
# T1: recombinant human BCMA Fc(kih) (human, UniProt Q02223 4-53, biotin on avi-tag where coupled to SA chip ; biotin on the avi-tag of the Fc-knob chain where coupled to the SA chip (tag not in the letters))
# T1 construct: also called huBCMA Fc(kih); huBCMA; not shown: human IgG1 hinge-Fc(knob)-avi fused to the ECD, and the unfused Fc(hole) chain
# T1 chain: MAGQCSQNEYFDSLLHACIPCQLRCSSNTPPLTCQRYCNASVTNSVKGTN
# T2: recombinant murine BCMA Fc(kih) (murine, UniProt O88472 2-49, biotinylated at the avi-tag of the Fc knob chain (not in the letters))
# T2 construct: also called muBCMA Fc(kih); not shown: human IgG1 hinge-Fc(knob)-avi and the unfused Fc(hole) chain
# T2 chain: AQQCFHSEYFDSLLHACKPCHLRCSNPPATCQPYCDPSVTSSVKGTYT
# T3: Fc fused huTACI-R (human, UniProt O14836 2-166, limits assumed)
# T3 construct: also called human TACI receptor
# T3 sequence (looked up): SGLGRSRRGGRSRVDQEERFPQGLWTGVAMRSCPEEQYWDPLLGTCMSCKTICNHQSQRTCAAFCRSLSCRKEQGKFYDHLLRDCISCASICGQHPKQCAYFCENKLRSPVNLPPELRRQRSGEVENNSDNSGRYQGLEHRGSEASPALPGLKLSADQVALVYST
# T4: human BCMA on myeloma cells (H929, U266) (human, UniProt Q02223 1-184)
# T4 construct: whole, on cells
# T4 sequence (looked up): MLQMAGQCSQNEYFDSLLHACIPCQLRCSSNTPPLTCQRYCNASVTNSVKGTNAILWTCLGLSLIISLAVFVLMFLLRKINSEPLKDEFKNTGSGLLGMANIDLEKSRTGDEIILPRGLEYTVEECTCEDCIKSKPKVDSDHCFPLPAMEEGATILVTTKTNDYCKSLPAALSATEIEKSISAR
# B1: pSCHLI372 anti-BCMA IgG (antibody, V domains shown)
# VH: EVQLVESGGGLVKPGGSLRLSCAASGFTFSNSGMIWVRQAPGKGLEWVGHIRSKTDGGTTDYAAPVKGRFTISRDDSKNTLYLQMNSLKTEDTAVYYCTTGGSGSFDYWGQGTLVTVSS
# VL: QAVVTQEPSLTVSPGGTVTLTCGSSTGAVTTSNYANWVQEKPGQAFRGLIGGTNKRAPGTPARFSGSLLGGKAALTLSGAQPEDEAEYYCALWYSNLWVFGGGTKLTVL
# notes: also called pSCHLI372 IgG; anti-BCMA IgG pSCHLI372
# B2: pSCHLI333 anti-BCMA IgG (antibody, V domains shown)
# VH: QVQLVQSGAEVKKPGASVKVSCKASGYMFSSFGMSWVRQAPGQGLEWMGWIYPVGQGTWYAQKFQGRVTMTRDTSTSTVYMELSSLRSEDTAVYYCARVSYPPSHFDYWGQGTLVTVSS
# VL: B1 VL
# B3: 14E4 Fab (Fab, V domains shown)
# VH: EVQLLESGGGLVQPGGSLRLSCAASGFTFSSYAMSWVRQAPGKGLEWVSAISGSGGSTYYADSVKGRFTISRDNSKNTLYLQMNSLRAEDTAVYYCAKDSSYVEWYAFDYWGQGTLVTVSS
# VL: EIVLTQSPGTLSLSPGERATLSCRASQSVSSSYLAWYQQKPGQAPRLLIYGASSRATGIPDRFSGSGSGTDSTLTISRLEPEDFAVYYCQQPTSSPITFGQGTKVEIK
# notes: as m51
# B4: DP47 GS TCB (2+1 Crossfab-IgG P329G LALA inverted, untargeted TCB) (bispecific antibody)
# heavy 1: not shown
# heavy 2: not shown
# light 1: not shown
# light 2: QAVVTQEPSLTVSPGGTVTLTCGSSTGAVTTSNYANWVQEKPGQAFRGLIGGTNKRAPGTPARFSGSLLGGKAALTLSGAQPEDEAEYYCALWYSNLWVFGGGTKLTVLSSASTKGPSVFPLAPSSKSTSGGTAALGCLVKDYFPEPVTVSWNSGALTSGVHTFPAVLQSSGLYSLSSVVTVPSSSLGTQTYICNVNHKPSNTKVDKKVEPKSC
# notes: negative control; also called DP47 TCB; DP47-TCB
# B5: pSCHLI372-TCB CLC (bispecific antibody)
# heavy 1: not shown
# heavy 2: EVQLVESGGGLVKPGGSLRLSCAASGFTFSNSGMIWVRQAPGKGLEWVGHIRSKTDGGTTDYAAPVKGRFTISRDDSKNTLYLQMNSLKTEDTAVYYCTTGGSGSFDYWGQGTLVTVSSASTKGPSVFPLAPSSKSTSGGTAALGCLVKDYFPEPVTVSWNSGALTSGVHTFPAVLQSSGLYSLSSVVTVPSSSLGTQTYICNVNHKPSNTKVDKKVEPKSCDKTHTCPPCPAPEAAGGPSVFLFPPKPKDTLMISRTPEVTCVVVDVSHEDPEVKFNWYVDGVEVHNAKTKPREEQYNSTYRVVSVLTVLHQDWLNGKEYKCKVSNKALGAPIEKTISKAKGQPREPQVCTLPPSRDELTKNQVSLSCAVKGFYPSDIAVEWESNGQPENNYKTTPPVLDSDGSFFLVSKLTVDKSRWQQGNVFSCSVMHEALHNHYTQKSLSLSPGK
# light: QAVVTQEPSLTVSPGGTVTLTCGSSTGAVTTSNYANWVQEKPGQAFRGLIGGTNKRAPGTPARFSGSLLGGKAALTLSGAQPEDEAEYYCALWYSNLWVFGGGTKLTVLGQPKAAPSVTLFPPSSEELQANKATLVCLISDFYPGAVTVAWKADSSPVKAGVETTTPSKQSNNKYAASSYLSLTPEQWKSHRSYSCQVTHEGSTVEKTVAPTECS
# notes: also called pSCHLI372 BCMAxCD3 TCB
# Assays:
# [1] = target: T1, recombinant human BCMA Fc(kih); test: SPR Biacore, binder captured via anti-Fab, BCMA-Fc analyte
# [2] = target: T2, recombinant murine BCMA Fc(kih); test: as above
# [3] = target: T1, recombinant human BCMA Fc(kih); test: SPR Biacore, bivalent avidity, BCMA-Fc on chip (Experiment 2)
# Method: (§1) Assessment of binding of anti-BCMA antibodies to recombinant BCMA by surface plasmon resonance (SPR) as follow. All SPR experiments were performed on a Biacore T200 at 25° C. with HBS-EP as running buffer (0.01 M HEPES pH 7.4, 0.15 M NaCl, 3 mM EDTA, 0.005% Surfactant P20, Biacore, Freiburg/Germany). The avidity of the interaction between anti-BCMA antibodies and recombinant BCMA Fc(kih) (human, cynomolgus and murine) was determined (Tables 38-40). Biotinylated recombinant human, cynomolgus and murine BCMA Fc(kih) were directly coupled on a SA chip following instructions (Biacore, Freiburg/Germany). The immobilization level ranged from 80 to 120 RU. […] The dissociation was monitored for 180 seconds. Bulk refractive index differences were corrected for by subtracting the response obtained on the reference flow cell. Here, the anti-BCMA antibodies were flown over an empty surface previously activated and deactivated as described in the standard amine coupling kit. Apparent kinetic constants were derived using the Biacore T200 Evaluation Software (v 1.0, Biacore AB, Uppsala/Sweden), to fit rate equations for 1:1 Langmuir binding by numerical integration, despite the bivalency of the interaction for comparison purposes.
# [4] = target: T2, recombinant murine BCMA Fc(kih); test: as above
# Method: as §1
# [5] = target: T1, recombinant human BCMA Fc(kih); test: SPR Biacore, bivalent avidity, BCMA-Fc on chip (Experiment 3)
# Method: as §1
# [6] = target: T2, recombinant murine BCMA Fc(kih); test: as above
# Method: as §1
# Fc fused huTACI-R = target: T3, Fc fused huTACI-R; test: SPR (Biacore T200), Fc fused huTACI-R on CM5 chip, IgG as analyte, reference-subtracted
# [7] = target: T1, recombinant human BCMA Fc(kih); test: SPR Biacore, bivalent avidity, BCMA-Fc on chip
# Method: as §1
# [8] = target: T2, recombinant murine BCMA Fc(kih); test: SPR Biacore, bivalent avidity, BCMA-Fc on chip
# Method: as §1
# [9] = target: T5, murine FolR1 monovalent Fc fusion, biotinylated (murine, UniProt P35846 25-232, biotin on C-terminal Avi-tag ; Biotin on the C-terminal Avi-tag of the Fc-knob chain (that part is not in the letters).); test: SPR ProteOn, Fab analyte, antigen on chip
# T5 construct: as m1; also called muFolR1; murine FolR1-Fc; not shown: IgG hinge, Fc-knob and C-terminal Avi-tag fused to the ECD, and the co-expressed Fc-hole chain
# Method: Immobilization of antigens (ligand): Recombinant antigens were diluted with PBST (10 mM phosphate, 150 mM sodium chloride pH 7.4, 0.005% Tween 20) to 10 μg/ml, then injected at 30 μl/minute in vertical orientation. Injection of analytes: For ‘one-shot kinetics’ measurements, injection direction was changed to horizontal orientation, two-fold dilution series of purified Fab (varying concentration ranges) were injected simultaneously along separate channels 1-5, with association times of 150 or 200 s, and dissociation times of 200 or 600 s, respectively. Buffer (PBST) was injected along the sixth channel to provide an “in-line” blank for referencing. Association rate constants (kₒₙ) and dissociation rate constants (koff) were calculated using a simple one-to-one Langmuir binding model in ProteOn Manager v3.1 software by simultaneously fitting the association and dissociation sensorgrams. The equilibrium dissociation constant (KD) was calculated as the ratio koff/kₒₙ.
# [10] = target: T6, human FolR1 on cells (HeLa, SKOV3, HT-29, transfected HEK) (human, UniProt P15328 25-234); test: flow cytometry, tumor cell panel
# T6 construct: whole, on cells
# [11] = target: T4, human BCMA on myeloma cells (H929, U266); test: flow cytometry on BCMA-positive H929 cells, PE anti-human Fc secondary antibody, median fluorescence intensity
# Method: (§2) Briefly, cultured cells are harvested, counted and cell viability was evaluated using ViCell. Viable cells are then adjusted to 2×10⁶ cells per ml in BSA-containing FACS Stain Buffer (BD Biosciences). 100 μl of this cell suspension were further aliquoted per well into a round-bottom 96-well plate and incubated with 30 μl of the BCMA-TCB CLC antibodies or corresponding TCB control for 30 min at 4° c. All BCMA-TCB CLC antibodies (and TCB controls) were titrated and analyzed in final concentration range between 0.12-500 nM. […] Cells were then washed twice with Stain Buffer (BD Biosciences), fixed using 100 ul BD Fixation buffer per well (#BD Biosciences, 554655) at 4° C. for 20 min, resuspended in 120 μl FACS buffer and analyzed using BD FACS CantoII.
# [12] = target: T4, human BCMA on myeloma cells (H929, U266); test: cell-based or functional assay
# [13] = target: T4, human BCMA on myeloma cells (H929, U266); test: cell-based or functional assay; remark: listed apart in the source
# [14] = target: T4, human BCMA on myeloma cells (H929, U266); test: flow cytometry, H929 cells
# Method: as §2
# T5 sequence (P35846 25-232 limits assumed): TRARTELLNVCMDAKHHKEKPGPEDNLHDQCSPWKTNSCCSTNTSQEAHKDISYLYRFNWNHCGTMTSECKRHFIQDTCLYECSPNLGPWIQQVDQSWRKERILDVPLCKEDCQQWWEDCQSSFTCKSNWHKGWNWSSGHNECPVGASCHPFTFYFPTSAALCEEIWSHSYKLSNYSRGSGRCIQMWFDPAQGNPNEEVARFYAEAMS
# T6 sequence (P15328 25-234): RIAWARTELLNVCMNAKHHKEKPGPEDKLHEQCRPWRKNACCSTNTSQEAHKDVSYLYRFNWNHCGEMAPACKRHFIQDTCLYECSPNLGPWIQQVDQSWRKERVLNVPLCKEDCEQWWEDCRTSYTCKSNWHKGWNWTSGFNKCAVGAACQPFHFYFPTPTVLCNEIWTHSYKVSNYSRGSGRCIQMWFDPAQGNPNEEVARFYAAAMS
binder,measurement,setting,value
B1,Kd,[1],114 nM
same,Kd,[2],1310 nM
same,Kd,[3],8.5 nM
same,Kd,[4],42.7 nM
same,Kd,[5],3.6 nM
same,Kd,[6],25.7 nM
same,binding result,Fc fused huTACI-R,no binding
B2,Kd,[7],2.5 nM
same,Kd,[8],19.6 nM
B3,Kd,[9],6.09 nM
B4,binding result,[10],no binding
same,binding result,[11],no binding (tested: 500 nM)
B5,"EC50 redirected T-cell killing, H929 (Experiment 1)",[12],450 pM and 0.08 µg/ml
same,"EC50 redirected T-cell killing, H929 (Experiment 2)",[12],900 pM and 0.17 µg/ml
same,"EC50 redirected T-cell killing, U266",[13],5700 pM and 1.1 µg/ml
same,EC50,[14],345 nM and 65.9 µg/mL
same,Kd,[1],63 nM
same,Kd,[2],344 nM
